Source: the supplement of paper PMC12764529
± gives the half width of the 95% confidence interval.

Tests used:
[1] = folding stability dG unfold from chymotrypsin proteolysis; higher = more stable
Procedure, shortened: (§1)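 Sequencing followed digestion of designed mini-proteins with trypsin and chymotrypsin, each at 11 concentrations in threefold dilutions together with a no-protease condition. The mini-proteins were under 80 residues, had no cysteine, sat in a PA-tagged cDNA display construct, and were kept only if AlphaFold2 dimer inter-PAE was above 15. From the counts, Bayesian fitting gave K50, and unfolding free energy was derived against a sequence-predicted unfolded-state K50 and a shared folded-state K50, per protease or combined.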

[2] = folding stability dG unfold from trypsin proteolysis; higher = more stable
Procedure, shortened: as §1

[3] = folding stability dG unfold (combined trypsin and chymotrypsin); higher = more stable
Procedure, shortened: as §1

Sequence | folding stability dG unfold [1] | folding stability dG unfold [2] | folding stability dG unfold [3]
SAGGSGKEFEVEKAVFIPLPDDRKLIIVKTKTSIQIVEYNGEEWKLVATYPYKDVPKNPRELLKKKSAGGSA [r2_133_TrMRF] | 1.13 ± 0.14 kcal/mol | 0.454 ± 0.22 kcal/mol | 0.929 ± 0.22 kcal/mol
SAGGKKKLVEITIKVPPGMTVEELIAEIAKKLPPGAKIVKVEYDKETKEIKIIVYDEKTKKKIEIKFSAGGS [r16_250_TrROS_Hall] | 1.51 ± 0.036 kcal/mol | 1.81 ± 0.049 kcal/mol | 1.64 ± 0.14 kcal/mol
SAGGSAGGSASVKELAEKLAEPGQTVMVIKRDGKEYLIVMSDEEAEALRKLFPDMEIERVRLSAGGSAGGSA [r18_198_TrROS_Hall] | 1.93 ± 0.023 kcal/mol | 1.59 ± 0.02 kcal/mol | 1.81 ± 0.062 kcal/mol
SAMPEKRFYTYEIPIPPGFKADEPFVGTVTLEEKTLPIKIGSIPDVPPDATVRLTVDLDTAEFRVELLPSAG [r14_554_TrMRF] | 1.3 ± 0.087 kcal/mol | 0.91 ± 0.1 kcal/mol | 1.16 ± 0.2 kcal/mol
SAGGSAGGSTLTVEIQITDADGNTLTAKVTLTFEPAPPPPPPPTVERRTTTVDGKTVTEYRRLSAGGSAGGS [r12_128_TrROS_Hall] | 1.04 ± 0.22 kcal/mol | 0.631 ± 0.18 kcal/mol | 0.969 ± 0.13 kcal/mol
SAGGKPNEKVKIKIKNKDGSEETIEIKVDEEVKIKIKFNGEEKEITIKKGETLTITLENAEIEVEKVSAGGS [r16_456_TrROS_Hall] | 1.83 ± 0.22 kcal/mol | 1.95 ± 0.16 kcal/mol | 1.94 ± 0.31 kcal/mol
SAGGDNVRPIKFEFKDGVKKSIYRSEDMIYINVEFYYDGRPLYRHSIEIPNIPPGDDAEIKFKIPPGSAGGS [r8_155_TrROS] | 1.55 ± 0.22 kcal/mol | 0.372 ± 0.18 kcal/mol | 1.24 ± 0.21 kcal/mol
SMTIEIEVDGKTVTVEIDPKTGKIKKVVVKDKETGEWKELSDEEIEKLLKELEDELREKREKLEKEGKEPSA [r9_368_TrROS_Hall] | 2.5 ± 0.18 kcal/mol | 2.32 ± 0.24 kcal/mol | 2.53 ± 0.25 kcal/mol
SAGIPYRVLELEIPGVGVRVEVRLAPDGRIVEVRVTVVPVPPVPPALPLRPELLVPDEDGRWYSPEELLSAG [r5_685_TrMRF] | 2.26 ± 0.028 kcal/mol | 2.68 ± 0.059 kcal/mol | 2.44 ± 0.11 kcal/mol
SAGGSALRIPPGEKIKVRNPDNGKPFEFKVTNWQMNPNGNAYFQVEMTSDGKKVKWPIPLDDIEVVSAGGSA [r15_62_TrROS] | 0.358 ± 0.37 kcal/mol | -0.397 ± 0.21 kcal/mol | 0.0757 ± 0.28 kcal/mol
SAGGSAGGSAGGMLVDPSTNTVTINLPPNTTLTFNYPDSTLTVTVPANETLTVTFPLTSSAGGSAGGSAGGS [r10_464_JUSTAS] | 0.947 ± 0.049 kcal/mol | 2.19 ± 0.075 kcal/mol | 1.67 ± 0.1 kcal/mol
SSSTVTVTVTFPDGTVVTVDFTGSLAEVEAAVREWVRQYAAEQGLDPREVRVTITFADDGTTRERTLPLRSA [r9_1193_JUSTAS] | 2.42 ± 0.035 kcal/mol | 0.921 ± 0.043 kcal/mol | 2.04 ± 0.086 kcal/mol
SAGGSAGGSAGSITLPDGLTLTWNPATNTLTITLTAPPPPTTTTTTKPAATTTTTTTTTTSAGGSAGGSAGG [r11_331_TrROS_Hall] | 1.77 ± 0.092 kcal/mol | 2.18 ± 0.086 kcal/mol | 1.87 ± 0.14 kcal/mol
SAGGKITIEVTYNKETGEITIRITFNGKTIEIKIKVPGLSEEEVKKLAEELAKKLKEKYGIDKVEITSAGGS [r16_249_TrROS_Hall] | 4.4 ± 0.11 kcal/mol | 4.36 ± 0.45 kcal/mol | 4.36 ± 0.29 kcal/mol
SAGGSAGGSAGGWFYKRDPDGKPLEPRPVVVIKISYEISYDADGGWKLKLNISIYPVYWISAGGSAGGSAGG [r7_572_TrROS] | 5.01 ± 0.15 kcal/mol | 3.58 ± 0.15 kcal/mol | 4.77 ± 0.31 kcal/mol
SAGGSAGGSAGGGSMKEKKLTVGDKEIIVTYNPETGTATVKSPENSVSVFPLEELKKLLSAGGSAGGSAGGS [r10_1140_JUSTAS] | 0.741 ± 0.1 kcal/mol | -1.25 ± 0.93 kcal/mol | 0.318 ± 0.24 kcal/mol

Sequence | folding stability dG unfold [1] | folding stability dG unfold [2] | folding stability dG unfold [3]
SLTAEEAAANPELAARLLALPPVPPFPVELLFVNPETRAVLPAKATVYQFPNTWLVLFPENGAALPVPGGSA [r9_548_TrMRF] | 1.26 ± 0.074 kcal/mol | 0.71 ± 0.14 kcal/mol | 1.1 ± 0.099 kcal/mol
SAGMKIKITLPNGAEFESNPETGKIEVIDPETGKPLIAYIPKDRPDIAFIFDPDNPKPLFEVKIDEIYPSAG [r5_761_TrMRF] | 1.27 ± 0.042 kcal/mol | 0.889 ± 0.016 kcal/mol | 1.11 ± 0.051 kcal/mol
SAGGSAGGSAGMRLLTVEYFDENGNPLSVEEIELYIERPPPPFLELEIDPRTGEPRFTGLSAGGSAGGSAGG [r17_348_JUSTAS] | 1.68 ± 0.068 kcal/mol | 1.01 ± 0.078 kcal/mol | 1.36 ± 0.14 kcal/mol
SAGMIKVEVVVPPEDPSKPPSEEELRALAEEVVRELGLDPAKHPIEIKREVVDPEKGVLRYTITVKLPSAGG [r19_244_JUSTAS] | 2.87 ± 0.069 kcal/mol | 3.09 ± 0.092 kcal/mol | 2.96 ± 0.11 kcal/mol
SAGGSAGGSAGMKTYTAEEIKNLPPGAKVIEVDGKLKIEIDGKIYTIEPGETVEIEPLEESAGGSAGGSAGG [r17_91_TrROS_Hall] | 2.04 ± 0.043 kcal/mol | 1.57 ± 0.078 kcal/mol | 1.89 ± 0.11 kcal/mol
SAGGKIKVTVEKEENGTYRVTVEITLPDGKKITITVTVPPGVKTEEEAKKLAEEKVKELLKKLGIKPSAGGS [r8_464_TrROS_Hall] | 4.27 ± 0.14 kcal/mol | 3.72 ± 0.15 kcal/mol | 4.11 ± 0.16 kcal/mol
SMTVVIDIPPEVPVPGSGSVRPVPVEEVLKRVEEAMAKGKKVVVTGRDPKHPLVQEVAARLEELGVEVVGSA [r9_468_JUSTAS] | 0.71 ± 0.016 kcal/mol | 0.342 ± 0.029 kcal/mol | 0.59 ± 0.054 kcal/mol
SEEEIEERIKKLAEELGFKVTEIKIEKTDNKLTVTVTITLPNGKKLTFTVTRDKNGKLTFTPEQLKKALKSA [r9_85_TrROS_Hall] | 3.609 ± 0.022 kcal/mol | 2.36 ± 0.038 kcal/mol | 3.21 ± 0.07 kcal/mol
SKPDPVKIEIEQERNPNGQPQHTIKIQDKGKDRKFPIHNMSIDEFDPDDPYIKIRSPGNGQSHTIPPDDLSA [r9_1186_TrROS] | 1.22 ± 0.022 kcal/mol | -0.0606 ± 0.073 kcal/mol | 0.832 ± 0.098 kcal/mol
SAGGSAGGEATEGTLIVGGKPVRVTVERTPEGGRIATVELPNGVTVVARLNPVTRGAEILEVVESAGGSAGG [r6_290_TrMRF] | 1.45 ± 0.086 kcal/mol | 0.773 ± 0.05 kcal/mol | 1.17 ± 0.13 kcal/mol
SAGGSAGGSAEPPEVRIRLEVRLLPDGTLEVTAEIEVDGKTYRITVTVDAKTNEIVSVSIEPSAGGSAGGSA [r18_459_TrROS_Hall] | 3.89 ± 0.21 kcal/mol | 4.44 ± 0.36 kcal/mol | 4.3 ± 0.46 kcal/mol
SAMKFKKGAKIEIEVEKVEEKEIDGKTVAVYRMKIKIEVDGKKYEIEVEIYYDKETKEWKIVKVEIKEVSAG [r14_293_TrROS_Hall] | 3.13 ± 0.046 kcal/mol | 3.55 ± 0.33 kcal/mol | 3.33 ± 0.19 kcal/mol
SAGGSAGGSTAKEIADKLGFDNVEIKPTKPVEQRKDPNGKWRRQYVYTIKIRNPDGREWTIPISAGGSAGGS [r12_221_TrROS] | 0.449 ± 0.24 kcal/mol | 0.626 ± 0.093 kcal/mol | 0.528 ± 0.13 kcal/mol
SAGGSAGGSAGGMSFPVSSVEYRKDPNSDTPLVFITLPDGTVIIERLDTGTSSVVPVSQLSAGGSAGGSAGG [r11_922_JUSTAS] | 1.3 ± 0.15 kcal/mol | 1.12 ± 0.037 kcal/mol | 1.21 ± 0.067 kcal/mol
SAGITIRLPGAEIEVQRYPHPGNGMPMYRVTVELENPEGKKPKVDVIFPPNQPPGQVENVARYIAKELKSAG [r5_704_TrROS] | -0.302 ± 0.28 kcal/mol | 0.858 ± 0.13 kcal/mol | 0.472 ± 0.16 kcal/mol
